Laboratory results: PMC8395503, “Epitope Mapping of Monoclonal Antibodies to Calreticulin Reveals That Charged Amino Acids Are Essential for Antibody Binding” (Antibodies, 2021)

Target: the molecule itself
Assay: native gel or EMSA; native PAGE, 4-20% Tris-glycine gel, native running buffer pH 7.5, Coomassie staining; samples in native sample buffer heated 10 min at 57 °C (recombinant CRT with or without 3 days at 42 °C)

B1: full-length recombinant wild-type calreticulin (natural protein, human, UniProt P27797 18-417, looked up)
chain: EPAVYFKEQFLDGDGWTSRWIESKHKSDFGKFVLSSGKFYGDEEKDKGLQTSQDARFYALSASFEPFSNKGQTLVVQFTVKHEQNIDCGGGYVKLFPNSLDQTDMHGDSEYNIMFGPDICGPGTKKVHVIFNYKGKNVLINKDIRCKDDEFTHLYTLIVRPDNTYEVKIDNSQVESGSLEDDWDFLPPKKIKDPDASKPEDWDERAKIDDPTDSKPEDWDKPEHIPDPDAKKPEDWDEEMDGEWEPPVIQNPEYKGEWKPRQIDNPDYKGTWIHPEIDNPEYSPDPSIYAYDNFGVLGLDLWQVKSGTIFDNFLITNDEAYAEEFGNETWGVTKAAEKQMKDKQDEEQRLKEEEEDKKRKEEEEAEDKEDDEDKDEDEEDEEDKEEDEEEDVPGQAKDEL
notes: calreticulin, human, Prot id P27797; called full-length recombinant wt CRT; Oligomers formed after heat treatment (57 °C 10 min, with or without 42 °C for 3 days); also called CRT; wt CRT; source: recombinant, produced using standard protocols and purified as previously described by Čiplys and colleagues [39]
B1: binds.

B2: calreticulin purified from human placenta (natural protein, UniProt P27797 18-417, looked up)
chain: B1 chain
notes: calreticulin, human, Prot id P27797, purified from placenta; Heat-treated (57 °C 10 min) before native PAGE; also called CRT; human CRT purified from human placenta; source: purified from human placenta
B2: binds.
